{"source": "the RNAGym collection of RNA variant scans (doi:10.7554/elife.80360)", "parents": {"B1": {"name": "HDV Ribozyme (parent)", "chain": "GGCCGGCAUGGUCCCAGCCUCCUCGCUGGCGCCGGCUGGGCAACAUUCCGAGGGGACCGUCCCCUCGGUAAUGGCGAAUGGGACCCA"}}, "data": [{"variants_of": "B1", "assay": "self-cleavage, relative activity (ratio to wild type); higher = more cleavage; co-transcriptional", "values": [{"variant": "GGCCGGCAUGGUCCCAGCCUCCUCGCUGGCGCCGGCUGGGUAACAUUCCGAGGGGACCGUCCCCUCGGUAAUGACGAAUGGGACCCA", "self-cleavage": 0.637}, {"variant": "GGCCGGCAUGGUCCCAGCCUCCUCGCUGGCGCCGGCUGGGUAACAUUCCGAGGGGACCGUCCCCUCCGUAAUGGCGAAUGGGACCCA", "self-cleavage": 0.554}, {"variant": "GGCCGGCAUGGUCCCAGCCUCCUCGCUGGCGCCGGCUGGGUAACAUUCCGAGGGGACCGUCCCCUCAGUAAUGGCGAAUGGGACCCA", "self-cleavage": 0.439}, {"variant": "GGCCGGCAUGGUCCCAGCCUCCUCGCUGGCGCCGGCUGGGUAACAUUCCGAGGGGACCGUCCCCUCUGUAAUGGCGAAUGGGACCCA", "self-cleavage": 0.604}, {"variant": "GGCCGGCAUGGUCCCAGCCUCCUCGCUGGCGCCGGCUGGGUAACAUUCCGAGGGGACCAUCCCCUCGGUAAUGGCGAAUGGGACCCA", "self-cleavage": 1}, {"variant": "GGCCGGCAUGGUCCCAGCCUCCUCGCUGGCGCCGGCUGGGUAACAUUCCGAGGGGACCUUCCCCUCGGUAAUGGCGAAUGGGACCCA", "self-cleavage": 0.937}, {"variant": "GGCCGGCAUGGUCCCAGCCUCCUCGCUGGCGCCGGCUGGGUAACAUUCCGAGGGGACCCUCCCCUCGGUAAUGGCGAAUGGGACCCA", "self-cleavage": 0.963}, {"variant": "GGCCGGCAUGGUCCCAGCCUCCUCGCUGGCGCCGGCUGGGUAACAUUCCGAGGGGACCGGCCCCUCGGUAAUGGCGAAUGGGACCCA", "self-cleavage": 1.1}, {"variant": "GGCCGGCAUGGUCCCAGCCUCCUCGCUGGCGCCGGCUGGGUAACAUUCCGAGGCGACCGUCCCCUCGGUAAUGGCGAAUGGGACCCA", "self-cleavage": 0.63}, {"variant": "GGCCGGCAUGGUCCCAGCCUCCUCGCUGGCGCCGGCUGGGUAACAUUCCGAGGUGACCGUCCCCUCGGUAAUGGCGAAUGGGACCCA", "self-cleavage": 0.931}, {"variant": "GGCCGGCAUGGUCCCAGCCUCCUCGCUGGCGCCGGCUGGGUAACAUUCCGAGGGGACCGUCCCCUCGGUAAGGGCGAAUGGGACCCA", "self-cleavage": 0.534}, {"variant": "GGCCGGCAUGGUCCCAGCCUCCUCGCUGGCGCCGGCUGGGUAACAUUCCGAGGGGACCGUCCCCUCGGUAAAGGCGAAUGGGACCCA", "self-cleavage": 0.656}, {"variant": "GGCCGGCAUGGUCCCAGCCUCCUCGCUGGCGCCGGCUGGGUAACAUUCCGAGGGGACCGUCCCCUCGGUAACGGCGAAUGGGACCCA", "self-cleavage": 0.375}, {"variant": "GGCCGGCAUGGUCCCAGCCUCCUCGCUGGCGCCGGCUGGGCCACAUUCCGAGGGGACCGUCCCCUCGGUAAUGGCGAAUGGGACCCA", "self-cleavage": 0.333}, {"variant": "GGCCGGCAUGGUCCCAGCCUCCUCGCUGGCGCCGGCUGGGUAACAUUCCGAGGGGACCGUCCCCUCGGGAAUGGCGAAUGGGACCCA", "self-cleavage": 0.946}, {"variant": "GGCCGGCAUGGUCCCAGCCUCCUCGCUGGCGCCGGCUGGGUAACAUUCCGAGGGGACCGUCCCCUCGGAAAUGGCGAAUGGGACCCA", "self-cleavage": 1.08}, {"variant": "GGCCGGCAUGGUCCCAGCCUCCUCGCUGGCGCCGGCUGGGCCCCAUUCCGAGGGGACCGUCCCCUCGGUAAUGGCGAAUGGGACCCA", "self-cleavage": 0}, {"variant": "GGCCGGCAUGGUCCCAGCCUCCUCGCUGGCGCCGGCUGGGUAACAUUCCGAGGGGACCGUCCCCUCGGUAAUGGCGAAUAGGACCCA", "self-cleavage": 0.283}, {"variant": "GGCCGGCAUGGUCCCAGCCUCCUCGCUGGCGCCGGCUGGGUAACAUUCCGAGGGGACCGUCCCCUCGGUAAUGGCGAAUGUGACCCA", "self-cleavage": 0.205}, {"variant": "GGCCGGCAUGGUCCCAGCCUCCUCGCUGGCGCCGGCUGGGUAACAUUCCGAGGGGACCGUCCCCUCGGUAAUGGCGAAUGCGACCCA", "self-cleavage": 0.168}, {"variant": "GGCCGGCAUGGUCCCAGCCUCCUCGCUGGCGCCGGCUGGGUAACAUUCCGAGGGGACCGUCCCCUCGGUAAUGGCGAAUGAGACCCA", "self-cleavage": 0.237}, {"variant": "GGCCGGCAUGGUCCCAGCCUCCUCGCUGGCGCCGGCUGGGUAACAUUCCGAGGGGACCGUCCCCACGGUAAUGGCGAAUGGGACCCA", "self-cleavage": 0.92}, {"variant": "GGCCGGCAUGGUCCCAGCCUCCUCGCUGGCGCCGGCUGGGUAACAUUCCGAGGGGACCGUCCCCUCGGUAAUGGCAAAUGGGACCCA", "self-cleavage": 0.95}, {"variant": "GGCCGGCAUGGUCCCAGCCUCCUCGCUGGCGCCGGCUGGGUAACAUUCCGAAGGGACCGUCCCCUCGGUAAUGGCGAAUGGGACCCA", "self-cleavage": 1.06}, {"variant": "GGCCGGCAUGGUCCCAGCCUCCUCGCUGGCGCCGGCUGGGUAACAUACCGAGGGGACCGUCCCCUCGGUAAUGGCGAAUGGGACCCA", "self-cleavage": 0.96}, {"variant": "GGCCGGCAUGGUCCCAGCCUCCUCGCUGGCGCCGGCUGGGUAACACUCCGAGGGGACCGUCCCCUCGGUAAUGGCGAAUGGGACCCA", "self-cleavage": 0.734}, {"variant": "GGCCGGCAUGGUCCCAGCCUCCUCGCUGGCGCCGGCUGGGUAACAUUCCGAGGGGACCGUCCCCUCGGUAAUGGCGAAUGGCACCCA", "self-cleavage": 0.136}, {"variant": "GGCCGGCAUGGUCCCAGCCUCCUCGCUGGCGCCGGCUGGGUAACAUUCCGAGGGCACCGUCCCCUCGGUAAUGGCGAAUGGGACCCA", "self-cleavage": 0.885}, {"variant": "GGCCGGCAUGGUCCCAGCCUCCUCGCUGGCGCCGGCUGGGUAACAUUCCUAGGGGACCGUCCCCUCGGUAAUGGCGAAUGGGACCCA", "self-cleavage": 0.933}, {"variant": "GGCCGGCAUGGUCCCAGCCUCCUCGCUGGCGCCGGCUGGGUAACAUUCCGAGGGGACCGUCCCCUCGGUAAUUGCGAAUGGGACCCA", "self-cleavage": 0.511}, {"variant": "GGCCGGCAUGGUCCCAGCCUCCUCGCUGGCGCCGGCUGGGUAACAUUCCGAGUGGACCGUCCCCUCGGUAAUGGCGAAUGGGACCCA", "self-cleavage": 1.1}, {"variant": "GGCCGGCAUGGUCCCAGCCUCCUCGCUGGCGCCGGCUGGGUAACAUUCCGAGCGGACCGUCCCCUCGGUAAUGGCGAAUGGGACCCA", "self-cleavage": 1.05}]}]}
